Reference: the DeepSol protein solubility set

Assay: soluble on expression in E. coli; label from the status in PepcDB or PDB records

For “MTTQVVNVIGAGLAGSEAAYQIAKRGVQVRLYEMRPVRQTPAHHTDKFAELVCSNSLRANTLTNAVGVIKEEMRLMDSVIIRAADECSVPAGGALAVDRHEFAAKVTEYVKNHPNVTVMNEEITEIPEGPTIIATGPLTSPDLSAQLKELTGEDYFYFYDAAAPIVEKDSIDMNKVYLKSRYDKGEAAYLNCPMTEEEFDRFYEALIAAETVPLKEFEKEIFFEGCMPVEVMASRGRQTLVFGPMKPVGLEDPKTGKTPYAVVQLRQDDAAGTLYNIVGFQTHLKWGPQKEVLQLIPGLENAEIVRYGVMHRNTFINSPNLLRPTYQYKQRDDLFFAGQMTGVEGYVESAASGLLAGINAARLVKGEEPVVLPPVTAMGSMANYITATNAKNFQPMNANFGLFAPLEKKIKKKAERNEAYATRALETIRNFVNILEHHHHHH”, which “soluble on expression in E. coli” value is on record?
Its value is “soluble”.

Which “soluble on expression in E. coli” value does the source give for “AMSKIICLTAGHSNTDPGAVNGSDREADLAQDMRNIVASILRNDYGLTVKTDGTGKGNMPLRDAVKLIRGSDVAIEFHTNAAANKTATGIEALSTPKNKRWCQVLGKAVAKKTGWKLRGEDGFKPDNAGQHSRLAYAQAGGIVFEPFFISNDTDLALFKTTKWGICRAIADAIAMELGAAKV” here?
Its value is “soluble”.

For “MKIGIFDSGAGGMTVLKAIREAYPNVDVVYLGDTARVPYGIRSKETIVRYSKECANFLKDKGVDLLVVACNTASAYALEELKREFPFPVFGVIEPGVKEALRKSKTKRIGVIGTQATIKSGAYQEALKRAGAEVYSKACPLFVPLVEEGMIEGEIPKKVVEHYLKDFKGKVDTLILGCTHYPLLKREIQNFLEGVNVIDSSRATAKSLKDFVKNEGSGSLELYFTDRSQNLERLIKLILGEEVEPKITSEVFVL”, which “soluble on expression in E. coli” value is on record?
The value was “soluble”.

Which “soluble on expression in E. coli” value does the source give for “MGSDKIHHHHHHLTVPKKLLLSDLLKHNVRCENGIDHGPVITPWMHPPVHRILGFISRPSNLRLEREVWRLDQLKGINQQEVYVKGVCSVSDEQTLDRFPTLMNANVFNKSGQKIGLIADFLFEPKKGNIQYYLVSRSNPLIPGTSRWLLSIDQIIDKQPGSISCDIETFEDLPIQKASLKEEFLSKSRKWKAQFQDLTYNASDKLEGWIDDQISESDNDSYEMLNDDPSYDDWIDNLDIDSSEEFNRMNKSKKNTNSTNERDLDPWI” here?
The value was “not soluble”.

Which “soluble on expression in E. coli” value does the source give for “NNLLYKRWVKQRAADVDKWSDGRLGYVHIQSMGDDSFRSVYSDILGKYNNREGIVIDTRFNGGGRLHEDIEVLFSGKKYFTQVVRGREACDMPSRRWNKPSIMLTCEANYSNAHGTPWVYSHQKLGKLVGMPVPGTMTSVSWERLQDPSLVFGIPVIGYRLPDGSYLENTQLEPDIKVANSPETIVKGEDTQLKTAVEELLKELPAGKGKKH” here?
The value was “not soluble”.

With “MFGGSAPKPSIFGGTAATTTASSGFSFGNSSTSTANTGGNTNTTGGFSFGSAQPSTGSTGLFGNSTATGSMFGGSSAAAPAPASAGIFGNSGAAAPAPASTSIFGSSANSAAPATVTFGASAPSAGAGMFGANKPAAPTGGLFGSSTSTATTAPTGGLFGSSTAAPSSGLFGSTAAPAAPGGLFGSTSTSTAAPSGGLFGSSAAPTSTAPAPSGGLFGAAPATSNAAPTSGLFGNSAPAATASSGGLFGAAPKPAAPSGGLFGSTAPATTAATTTATSGLFGAPTSAPSSAPATGGLFGASTAPAAATGGLFSIGAASASTPSVGLFGNSSASTTAAAAPATAPAAASTGGLFGATTAAAAAPTSSTTGGLFGSTAAAPAASLPTGGLFGSSTPAKTPAAPTAGLFGASSTTTTSAPATGSLFGTAPATTTATSAAPAASTGGLFGASSTTTPASTAPTGGLFGAATTTAPAAAAPTGGLFGAATTTAPATVGPTGGLFGAATTTTPATAATLGQTPSTVSATPSLPTTTSTTSTLPKPAEATPTLGLGLGLTSTPLAKGTGWTTSGLKGAATTSAGLKIGASGSDTLSEEEIKAGLGGNDTKAFFTALQEVVNSYHSEIAKQERVFHNKMLELNAYDRELITLEPKVLGLYNEMDDLSGSCKKLHFNVASMTSVLNDIEQNVVELENKLSLPEWHTLDYKFPLDSRFASRHDVQRVQIAQMMLNVDSQMKCADFDLDQITKSLNTMQSTVLKTKTETPLEKTELIMKKQLQKLMDLSTQHDATRDKLNKLKDDHNLKTNNSSKA” as the sequence, how does the “soluble on expression in E. coli” value read?
Its value is “not soluble”.

Which “soluble on expression in E. coli” value does the source give for “MGSHHHHHHSSGLVPRGSHMTIGIDKISFFVPPYYIDMTALAEARNVDPGKFHIGIGQDQMAVNPISQDIVTFAANAAEAILTKEDKEAIDMVIVGTESSIDESKAAAVVLHRLMGIQPFARSFEIKEACYGATAGLQLAKNHVALHPDKKVLVVAADIAKYGLNSGGEPTQGAGAVAMLVASEPRILALKEDNVMLTQDIYDFWRPTGHPYPMVDGPLSNETYIQSFAQVWDEHKKRTGLDFADYDALAFHIPYTKMGKKALLAKISDQTEAEQERILARYEESIIYSRRVGNLYTGSLYLGLISLLENATTLTAGNQIGLFSYGSGAVAEFFTGELVAGYQNHLQKETHLALLDNRTELSIAEYEAMFAETLDTDIDQTLEDELKYSISAINNTVRSYRN” here?
Its value is “soluble”.

Which “soluble on expression in E. coli” value does the source give for “MSTLAPLFLAKHPDGEERQVIRPNVWETSCADTETLSIFHIEGMADPDLLCRVLNLFAVQSFTPERVRADREDHKIRLLLTFPGLSQHRASVIAEKLRSLVTVLAVRLEFSPHAGKVRPSVSEPLLASVV” here?
The value was “not soluble”.

For “MGSDKIHHHHHHMLQAFYTGLSGLNSYSKNLDNVSNNIANMNTAGYRGMDSFYQALGGDSDKPGLGAQISGLGYRFSVGDIRQTGNDFDLAITGTGFFALLDGEKVFYTRTGQFEFDQNNVLVDKNTGFKVAGIDSNGQLSEINLLSYQAIKPTATTKLSLTGNLSPLDDVHQISSAKMINSLGEEVDLSIKFTNEKATFPNQWKVEILDDKGIVLHSDSVKFGPDGTPEVGSGSFIFNLADSSGNTTPIDITVGTIGDFSAVTQTSATGVDSNVTLHAVDGKGVGQLVKRSFDPQGRVTLNYSNGDKVTPFTIAMVDFDDISTLSIESGTVFKASDLESRVLGKAGEGRFKQLATSSIEMSNVDLSQEFADMLVIQRGYQASSRILNVANQMIEQLYENTRGR”, which “soluble on expression in E. coli” value is on record?
The value was “not soluble”.

For “MGGDSKGTYCGAPILGPGSAPKLSTKTKFWRSSTTPLPPGTYEPAYLGGKDPRVKGGPSLQQVMRDQLKPFTEPRGKPPKPSVLEAAKKTIINVLEQTIDPPEKWSFTQACASLDKTTSSGHPHHMRKNDCWNGESFTGKLADQASKANLMFEGGKNMTPVYTGALKDELVKTDKIYGKIKKRLLWGSDLATMIRCARAFGGLMDELKAHCVTLPIRVGMNMNEDGPIIFERHSRYKYHYDADYSRWDSTQQRAVLAAALEIMVKFSSEPHLAQVVAEDLLSPSVVDVGDFKISINEGLPSGVPCTSQWNSIAHWLLTLCALSEVTNLSPDIIQANSLFSFYGDDEIVSTDIKLDPEKLTAKLKEYGLKPTRPDKTEGPLVISEDLNGLTFLRRTVTRDPAGWFGKLEQSSILRQMYWTRGPNHEDPSETMIPHSQRPIQLMSLLGEAALHGPAFYSKISKLVIAELKEGGMDFYVPRQEPMFRWMRFSDLSTWEGDRNLAPSFVNEDGVEVDKLAAALEHHHHHH”, which “soluble on expression in E. coli” value is on record?
Its value is “soluble”.

With “MSLKIHTLRLILGDQLNARHSWFREKDAGVLYVMMELKQETDYVVHHRQKVLAFFAAMRAFGNALNTSGHQVNYIKLDDDTNEQSLTQNLQQLMKKYEVTTLECQQPDEYRLDHQLKSWAGANNIHLSWFDTEHFLTGRNSLKEYFPNSENYLMETFYRRVRKQYDILMDGGRPTGGRWNYDKENQKKVPASHDVELPLIFSNDVSDIDELLRSSEIKTMGQANAAQLIWEGHHHHHH” as the sequence, how does the “soluble on expression in E. coli” value read?
Its value is “not soluble”.

Which “soluble on expression in E. coli” value does the source give for “PDLYNHAIVIGYGRVGSMLAQLLQSRHVPLLVIDDNSEHVLKAHAAGIPAIRGSAAADLVLAEAHPERAKIAVLAIPQPLEAGEILAKLRALNPELTLVARAQNDAEVKHLLGHGADATVVAEHEMAHSLAEMVLSSTNH” here?
Its value is “not soluble”.

With “RGRLRIFFGFAAGVGKTYGMLTEAHELLMMGKHVVVGYIEPHDRPDTNRLLEGLPQIPPKNIFYKQMVLTEPDIDQIIQQKPEIVLIDELAHSNAEGSRNRKRYQDIDELLNAGIDVFTTVNVQHIESLNDIVEEVTGIEVKETVPDTFLRQATIRVIDVEPDELIERLEQGKIYANENAKRALKNFFIPQKLDQLRGLAIQRASDHINRISGKTIG” as the sequence, how does the “soluble on expression in E. coli” value read?
Its value is “not soluble”.

Which “soluble on expression in E. coli” value does the source give for “MKKILIVDDEKPISDIIKFNMTKEGYEVVTAFNGREALEQFEAEQPDIIILDLMLPEIDGLEVAKTIRKTSSVPILMLSAKDSEFDKVIGLELGADDYVTKPFSNRELQARVKALLRRSQ” here?
Its value is “soluble”.

With “MCDIGNRQAYQRAQLDALLGRVRLQANQMEWRPGIYVGEGTTIASSAQLEPPLWIGQHCYIGEEVQLKAGTVIGDESRIEAGACLDRAVVWNRVQIGQRSHLEGCVLEHHHHHH” as the sequence, how does the “soluble on expression in E. coli” value read?
The value was “not soluble”.

Which “soluble on expression in E. coli” value does the source give for “MSLGIRIGDGCIFRDPLTTRIDVSRPALVSIGSNVDMNTYFQILTHDWASFVFRNKYHDFVNSSGRVEIGSNIYIGTNVIVLRGVTIGDNCVIGAGSVVTHDIPANSVAVGAPCRVVCSLDEYYQKRKVKGLQEAVEHVKAFQKNFGRDPLPHELYEEFIYFVDASNVEEYERQGVPVRSQLSIAYGDWLSTHKAKFSSYDDFIQYVNQKMNETLEHHHHHH” here?
Its value is “not soluble”.

Which “soluble on expression in E. coli” value does the source give for “MKETIMNQKLTKRQAEVHTGRKGTAHRKKVVHTTAEDKKFQFSLKKLGVNNIPGIEEVNMFTHQGTVIHFNNPEVQASLAANTFTMTGHAETKQLTEMLLSIDHKPVLQMV” here?
Its value is “soluble”.

Which “soluble on expression in E. coli” value does the source give for “MGSDKIHHHHHHMRGGNIETMVAGTIKVVQMLPDLNEGGVEKGTLELGAFLTESGHQSIVISGGGRMVSQLESEGSRHLTWPHIGEKSPRCLNYFFPLRRFLLKEGVDIVHLRSRLPAWVAFLAWKSLPVKRRPVLITTFHGFYSVNFYSAIMTRGERIIAVSKTIADHIREAYDVAAERIVLIPRGLDEEQFNPENVTVERIRNLKERWGLNGNTDPVVMLPGRVTRLKGQDVFLQSLAGIKELPWKAIMVGESDATSEYTRILEKMVGDPDLRERVKFVGHCSDMPAAMTLADIVVSTSTKPESFGRTSVEAQAMRKPVIVSAHGGSLETVLDGKTGWHVKPGDSEALSACLRIALSDESVRKKMGVEGRKWVVSQFTVTKMCEKTVALYQELLLRKSSWSQI” here?
Its value is “not soluble”.

Which “soluble on expression in E. coli” value does the source give for “MGSDKIHHHHHHMIIMRFLIKVKPEERKFRVPYNHQYFLQGLIYNRIKLTNPRLSTFLHETKGPKLFTYSLFMTERREHPKGLPYFLGYRRGFFYFSTCIPEIAEAFITGLFREPEITLWGEKFYLEEVKTLKEPKKFSGSTFITLSPIAVTMEKGGKRYDVSPLEEEFYALIRENLKDKYVMIKGEKPPDDFEMEIIAAKPKRFEVKPGIYQMAWHLVFRAYGDDELIRVGYVVGFGEKNSLGFGMVKVDEQRKRRKNIGSFQESMSFNENRELETGT” here?
Its value is “not soluble”.

With “GMSENKKKFDKKGAKNMDEISKTLFAPIYPIIAENIINRFGITAGTCIDIGSGPGALSIALAKQSDFSIRALDFSKHMNEIALKNIADANLNDRIQIVQGDVHNIPIEDNYADLIVSRGSVFFWEDVATAFREIYRILKSGGKTYIGGGFGNKELRDSISAEMIRKNPDWKEFNRKNISQENVERFQNVLDEIGISSYEIILGDEGFWIIISKTDQEVI” as the sequence, how does the “soluble on expression in E. coli” value read?
Its value is “soluble”.

Which “soluble on expression in E. coli” value does the source give for “MGIFDFLSGQFIDVIHWTDDTRDTMVWRFEREGHEIKYGAKLTVREGQSAVFVHEGQLADVFTPGLYMLETNNMPILTTLNHWDHGFRSPFKSEIYFVNTTRFNNLKWGTKNPIMLRDPEFGPTRIRAFGTYSVRVTDPARFLSEIVGTDGEFTMDEISFQIRNIIVQEFSRVIAASGIPVLDMAANTADLGKLIAAQVALPLTEYGLEMPEFYIENISLPPAVEAALDKRTSMGLAGDLGKFTQYSAAEAMTAAATNPAGGGMAAGLGAGMGMAMAQQMAQPGPWGAAPASRHAAPPPPPVEHVWHVAVDGQTSGPFSKAKMGRMAAEGEITRDTYVWTPGQDGWKRAEDVRELAQLFTILPPPPPPPGALEHHHHHH” here?
The value was “soluble”.
